Where two headings read alike, the source gives them in different places.

In assay [1] the target is AHSV VP7重组蛋白 (recombinant African horse sickness virus VP7 protein) (African horse sickness virus).
Assay [2] shares this target. Kind of assay: indirect ELISA on coated recombinant VP7 (0.5 ug/mL); 1H4 at 0.5 ug/mL (1:4000).
For assay [3] the target is unchanged. As to the kind of experiment: indirect ELISA on coated recombinant VP7 (0.5 ug/mL); 1H4 at 0.25 ug/mL (1:8000).
For assay [4] the target is unchanged. This is another data set of the same source.
For assay [5] the target is unchanged. As to the kind of experiment: indirect ELISA on coated recombinant VP7; end-point titer by P/N > 2.1.
For assay [6] the target is unchanged. As to the kind of experiment: indirect ELISA on coated recombinant VP7 (0.5 ug/mL); 1H4 at 1 ug/mL (1:2000). For orientation: ELISA stands for enzyme-linked immunosorbent assay.

With 阴性抗体 (negative antibody), the OD450 in assay [1] worked out at 0.0378 OD450.

B1: 抗AHSV VP7单克隆抗体1H4 (monoclonal antibody 1H4 against African horse sickness virus VP7 protein) (antibody, V domains shown)
VH: EVQLVESGGGLVQPGGSLKLSCAASGFTFSRYGMSWVRQTPDKRLELVAIIKNDGRSSYYPDSVKGRFTIYRDNAKNTLYLQMSTLKSEDTAMYHCAYGSSLYWYFDVWGAGTTVTVSS
VL: DVLMTQTPLSLPVSLGDQASISCRSSQSIVHSNGNTYLEWYLQKPGQSPKLLIYKVSNRFSGVPARFSGSGSGTGFTLKISRVEAEDLGVYYCFQGSHVPPTFGGGTKLEIK
For B1, the OD450 is 2.87 OD450 in assay [2], 2.93 OD450 in assay [3], 3.58 OD450 in assay [4] and 4.09 OD450 in assay [6]. In assay [5], the 效价 (ELISA titer, P/N > 2.1) (dilution factor (1:x)) amounted to 1.02e+06. Moreover, the 效价对应的稀释浓度 (antibody concentration at the end-point titer) in assay [5] was determined as 1.95 ng/mL.

The values above are taken from patent publication CN116769021A.
